Target: T1, Human B7-H3(4Ig), His Tag (human, UniProt Q5ZPR3 29-461)
T1 construct: Bought protein; also called recombinant human B7H3 antigen; human B7-H3 protein; not shown: His tag
T1 sequence (looked up): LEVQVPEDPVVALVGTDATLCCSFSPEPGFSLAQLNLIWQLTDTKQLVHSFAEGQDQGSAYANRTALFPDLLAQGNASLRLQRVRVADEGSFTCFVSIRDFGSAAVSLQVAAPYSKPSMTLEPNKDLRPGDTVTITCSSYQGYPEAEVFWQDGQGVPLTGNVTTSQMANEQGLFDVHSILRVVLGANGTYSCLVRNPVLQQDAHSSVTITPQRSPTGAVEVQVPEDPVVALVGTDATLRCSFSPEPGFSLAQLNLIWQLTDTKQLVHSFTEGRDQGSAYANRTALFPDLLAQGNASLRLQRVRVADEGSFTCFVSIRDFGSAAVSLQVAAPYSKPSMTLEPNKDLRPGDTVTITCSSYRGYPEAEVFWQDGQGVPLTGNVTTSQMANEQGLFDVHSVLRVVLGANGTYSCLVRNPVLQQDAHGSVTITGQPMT
Assay: ELISA, plate coated with 2 µg/mL recombinant human B7-H3 (4Ig) His, serially diluted antibody, HRP anti-human secondary antibody, OD450
Method: A 96-well ELISA plate was coated with 2 μg/mL recombinant human B7H3 antigen (see the table above) at 30 μL/well and kept at 4° C. overnight. The following day, the well plate was washed 3 times with PBST and then blocked with 5% skim milk for 2 h. […] The plate was then washed 3 times with PBST, and an HRP-labeled anti-human secondary antibody diluted in a 1:5000 ratio was then added at 100 μL/well and incubated for 1 h. After the incubation was complete, the plate was washed six times with PBST, and TMB (SurModics, TMBS-1000-01) was added for color development. Based on the results of the color development, the reaction was stopped by adding 2M HCl, and the plate was read by a microplate reader (Molecular Devices, SpecterMax 190) at OD450.

B1: W301088-1.145.16-z3-p1-uIgG1KV320 (antibody, V domains shown)
VH: QVQLQESGPGLVKPSQTLSLTCTVTDYSITGDYAWNWIRQHPGKGLEWIGYISYSGSTSYNPSLQSRVTISRDTSKNQFSLKLSSVTAADTAVYFCARSLGRRWYFVVWGQGTTVTVSS
VL: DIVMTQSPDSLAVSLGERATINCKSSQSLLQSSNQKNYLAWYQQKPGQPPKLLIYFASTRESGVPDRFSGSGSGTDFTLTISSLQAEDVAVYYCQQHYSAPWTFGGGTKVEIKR
notes: Humanized, PTM-removed (VL N027dQ) human IgG1 LALA kappa antibody; also called WBP301088; W301088-z3-p1
Q: With B1 as the binder, how does the “EC50 (read off the curve)” value read?
A: ~0.2 µg/mL
